Test results: patent US10280205B2, “Method for treating cancer with an activated T lymphocyte that selectively recognizes a cancer cell consisting of specific peptide” (immatics biotechnologies GmbH, priority 2015, dated 2019)

Molecular target: HLA-A*02:01 (Homo sapiens, UniProt P04439, D140Y/D185E/D98H/E176V/E277Q/G131W/G231S/I119V/I121R/I166T/I218V/L300P/L318F/N151K/N90K/P208A/P217A/Q86G/Q94H/R138H/R169H/T345S)
Test: MHC binding assay: UV-ligand exchange with beta2m ELISA (exchange yield)
Conditions: binding to HLA-A*02:01, β2m ELISA
Summary of the method: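 Exchange yield reflects how much β2m remains bound, measured by ELISA: streptavidin capture of 100-fold diluted monomers, HRP anti-β2m at 37° C. for 1 h, TMB read at 450 nm. Monomers come from UV cleavage of a conditional HLA-A*02:01 ligand in the presence of the candidate peptide.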

Row | Substance | Peptide exchange (MHC class I binding score, peptide exchange yield)
1 | 514 (ILVDWLVQV; listed as Homo sapiens) [compound 514] | “+++” (≥50 = +++)
2 | 515 (LLQELVLFL; listed as Homo sapiens) [compound 515] | “+++” (≥50 = +++)
3 | 516 (AVGPASILKEV; listed as Homo sapiens) [compound 516] | “++” (≥20% = ++)
4 | 517 (LLMPIPEGLTL; listed as Homo sapiens) [compound 517] | “+++” (≥50 = +++)
5 | 518 (KLNAEVACV; listed as Homo sapiens) [compound 518] | “+++” (≥50 = +++)
6 | 519 (GLLHLTLLL; listed as Homo sapiens) [compound 519] | “+++” (≥50 = +++)
7 | 520 (LAVHPSGVAL; listed as Homo sapiens) [compound 520] | “+” (≥10% = +)
8 | 521 (MLLTKLPTI; listed as Homo sapiens) [compound 521] | “+++” (≥50 = +++)
9 | 522 (TLWYRSPEV; listed as Homo sapiens) [compound 522] | “++” (≥20% = ++)
10 | 523 (YQIPRTFTL; listed as Homo sapiens) [compound 523] | “++” (≥20% = ++)
11 | 524 (ALIENLTHQI; listed as Homo sapiens) [compound 524] | “++” (≥20% = ++)
12 | 525 (VLLEAGEGLVTI; listed as Homo sapiens) [compound 525] | “+++” (≥50 = +++)
13 | 526 (RLAEVGQYEQV; listed as Homo sapiens) [compound 526] | “++” (≥20% = ++)
14 | 527 (FLLEPGNLEV; listed as Homo sapiens) [compound 527] | “++++” (≥75% = ++++)
15 | 528 (SVAEGRALMSV; listed as Homo sapiens) [compound 528] | “+++” (≥50 = +++)
16 | 529 (LLADELITV; listed as Homo sapiens) [compound 529] | “+++” (≥50 = +++)
17 | 530 (VMYADIGGMDI; listed as Homo sapiens) [compound 530] | “+++” (≥50 = +++)
18 | 531 (YTLPIASSIRL; listed as Homo sapiens) [compound 531] | “+++” (≥50 = +++)
19 | 537 (TLAPGEVLRSV; listed as Homo sapiens) [compound 537] | “+++” (≥50 = +++)
20 | 538 (LLLAHIIAL; listed as Homo sapiens) [compound 538] | “++” (≥20% = ++)
21 | 539 (ALFDAQAQV; listed as Homo sapiens) [compound 539] | “+++” (≥50 = +++)
22 | 541 (SMLEPVPEL; listed as Homo sapiens) [compound 541] | “+++” (≥50 = +++)
23 | 542 (RVWDISTVSSV; listed as Homo sapiens) [compound 542] | “+++” (≥50 = +++)
24 | 543 (GLLPTPITQQASL; listed as Homo sapiens) [compound 543] | “+++” (≥50 = +++)
25 | 544 (LLWDVPAPSL; listed as Homo sapiens) [compound 544] | “+++” (≥50 = +++)
26 | 545 (LLADLLHNV; listed as Homo sapiens) [compound 545] | “+++” (≥50 = +++)
27 | 546 (VMIAGKVAVV; listed as Homo sapiens) [compound 546] | “+++” (≥50 = +++)
